# Biological target: T1, ß-lactoglobulin (Bos taurus, UniProt P02754)
# T1 sequence (P02754 17-178): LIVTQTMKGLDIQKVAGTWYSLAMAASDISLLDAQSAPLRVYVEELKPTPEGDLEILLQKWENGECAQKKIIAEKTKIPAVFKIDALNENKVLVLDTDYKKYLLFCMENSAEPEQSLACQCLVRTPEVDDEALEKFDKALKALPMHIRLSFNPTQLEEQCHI
# Assay: Chaperone activity assay: heat-induced BLG aggregation, Tol3/S25 readout
# Assay type: biochemical
# Settings: 0.4 mg/ml HSP 27, 8 mg/ml ß-lactoglobulin (mass ratio 1:20), 68° C.
# Protocol: Aggregation of ß-lactoglobulin was monitored in the presence or absence of the chaperone HSP 27. Aggregation of 8 mg/ml ß-lactoglobulin was monitored using 1.25 μM Tol3 and 1.25 μM S25 in PBS, pH 7.4 with 2.5 mM EDTA and 0.05% sodium azide. When the chaperone HSP 27 was added it was added to a final concentration of 0.4 mg/ml. HSP 27 was also run in the absence of R-lactoglobulin as a control. Aggregation was initiated by heating the protein solution to 68° C. in a 96 well half-volume clear plate (Biomol international, Inc). The fluorescence intensity was then recorded every 2 minutes, with shaking between reads. The excitation wavelength was set to 550 nm and the emission was set to 610 nm on a BMG Fluorstar plate reader. The fluorescence intensity of the starting point was subtracted from the remaining points. […] Since Hsp 27 is binding with unfolded BLG intermediate, thus preventing protein aggregation, these styryl cyanine dyes are detecting protein aggregation, as opposed to unfolding.
substance,measurement,value
"Hsp 27: heat shock protein, chaperone",Effect on heat-induced aggregation of BLG,significantly prevent the aggregation of BLG

# From patent US9932479B2, “Dyes and compositions, and processes for using same in analysis of protein aggregation and other applications” (Enzo Biochem, Inc., priority 2009, dated 2018)
